Reference: patent publication US5677146

Columns and labels:
[1] = target: T1, Cathepsin G, purified at Novo Nordisk A/S using the method of Baugh and Travis
T1 sequence (P08311 21-244, species assumed, looked up): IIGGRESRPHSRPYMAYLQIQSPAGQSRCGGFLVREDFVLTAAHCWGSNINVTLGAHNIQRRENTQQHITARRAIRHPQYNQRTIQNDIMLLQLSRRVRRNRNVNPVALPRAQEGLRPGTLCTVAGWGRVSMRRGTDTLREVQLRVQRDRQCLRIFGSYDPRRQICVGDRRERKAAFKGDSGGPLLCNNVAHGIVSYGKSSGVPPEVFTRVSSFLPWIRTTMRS

[2] = target: Chymotrypsin (2.5 nM), Novo Nordisk A/S
[3] = target: Leukocyte Elastase, purified at Novo Nordisk A/S using the method of Baugh and Travis
[4] = target: Plasmin (10 nM), Kabi
[5] = target: Trypsin (8 nM), Novo Nordisk A/S, Bagsvaerd, Denmark
[6] = target: Urokinase (5 nM), Serono, Freigung, Germany
[7] = target: glandular kallikrein (1 U/ml), Sigma, St Louis, MO
[8] = target: plasma kallikrein (3 nM), Kabi

B1: Kunitz-type inhibitor domain of the amyloid protein precursor (protein)
chain: EVCSEQAETGPCRAMISRWYFDVTEGKCAPFFYGGCGGNRNNFDTEEYCMAVCGSA
[1]
  % Inhibition: 16%
[2]
  % Inhibition: 94%
[3]
  % Inhibition: 6%
[4]
  % Inhibition: 90%
[5]
  % Inhibition: 99.7%
[6]
  % Inhibition: 0%
[7]
  % Inhibition: 82%
[8]
  % Inhibition: 71%
